Laboratory results as given in patent US20230184767.

System: infectious human adenovirus 2 (HAdV-2, whole virus) (Human adenovirus 2)
Test: ELONA
Conditions: SELEX buffer 20 mM Tris, 100 mM NaCl, 2.5 mM MgCl2, pH 7.2, room temperature

Question: With “GGCTGCAGCTGAAGCACTGGTTTTGAGTCAAACCCAGACGATGGA [Apt-HAdV]” as the sequence, how does the Kd read?
Answer: Its Kd is 0.9 nM.
